The results in this text go back to patent US6709838.

The target of this assay is human Ptch (SEQ ID NO:4), overexpressed on transfected human 293 embryonic kidney cells (human) (UniProt Q13635). Briefly: Scatchard analysis of 125I-Shh displacement curves, 293 cells expressing Ptch.
Consider “Dhh (SEQ ID NO:13) (from UniProt Q61488 23-198) (ligand)”, for which the Kd – broadly, the constant that tells how readily two partners part at equilibrium – was 2.6 nM. With “Shh (SEQ ID NO:14), 19kD amino terminal fragment of murine Shh (from UniProt Q62226 25-198) (ligand)” the figure was 1 nM; with “Ihh (SEQ ID NO:29) (from UniProt P97812 28-202) (ligand)”, 1 nM.
